Results published in patent publication US20260207767A1 (ANAVEON, published 2026).

Legend:
[1] = target: T1, recombinant hPD-1 (construct not stated) (human, UniProt Q15116 25-167, limits assumed); assay: ELISA
T1 construct: also called huPD-1; Human PD1

[2] = target: T2, recombinant cynoPD-1 (construct not stated) (cynomolgus monkey, UniProt B0LAJ3 25-170); assay: ELISA
T2 construct: not shown: probably His as elsewhere

[3] = target: T3, human PD-1 expressed on cells (human, UniProt Q15116 25-288); assay: flow cytometry, CHO-S hPD-1
T3 construct: whole, on cells; cell line named under assay; also called CHO-S hPD-1; Raji PD-1
T3 sequence (Q15116 25-288): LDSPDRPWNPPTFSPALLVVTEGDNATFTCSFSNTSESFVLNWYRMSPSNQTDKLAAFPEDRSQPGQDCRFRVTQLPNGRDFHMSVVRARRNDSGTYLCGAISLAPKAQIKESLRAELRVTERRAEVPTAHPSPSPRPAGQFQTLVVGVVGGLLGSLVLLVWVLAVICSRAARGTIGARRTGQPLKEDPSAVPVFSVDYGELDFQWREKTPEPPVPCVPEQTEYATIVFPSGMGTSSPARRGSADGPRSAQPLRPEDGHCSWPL

[4] = target: T4, hPD-1 Avi-Tag Biotin (AcroBiosystems PD1-H82E4) (human, UniProt Q15116 25-167, biotin on Avi-Tag); assay: SPR, Ab captured, PD-1 analyte
T4 construct: bought; also called human PD-1
T4 sequence (Q15116 25-167 limits assumed): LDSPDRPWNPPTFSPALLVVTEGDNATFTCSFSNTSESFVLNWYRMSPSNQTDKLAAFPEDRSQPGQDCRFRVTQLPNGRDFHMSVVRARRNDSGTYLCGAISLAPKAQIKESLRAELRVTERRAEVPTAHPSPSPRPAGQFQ
Procedure: Anti-human Fc IgG (Jackson) was immobilized on amine reactive CM5 chips (GE Healthcare) using 1×HBS-EP+ running buffer (GE Healthcare). The test antibodies were captured at flow rate 10 μl/min with 30 s contact time. […] Regeneration was carried out with 10 mM Glycine-HCl, pH 1.5 at flow rate 10 μL/min. This protocol is to be used, unless stated otherwise, in determination of Kd wherever used to define the KD of antibodies specified herein, with adaptions where necessary with regard to the nature of the interaction partners. […]

[5] = target: T5, cynomolgus PD-1 expressed on cells (cynomolgus monkey, UniProt B0LAJ3 25-288); assay: flow cytometry, CHO-S Cyno-PD-1
T5 construct: also called CHO-S Cyno-PD-1; 293:cyPD1
T5 sequence (B0LAJ3 entry or part of it limits assumed): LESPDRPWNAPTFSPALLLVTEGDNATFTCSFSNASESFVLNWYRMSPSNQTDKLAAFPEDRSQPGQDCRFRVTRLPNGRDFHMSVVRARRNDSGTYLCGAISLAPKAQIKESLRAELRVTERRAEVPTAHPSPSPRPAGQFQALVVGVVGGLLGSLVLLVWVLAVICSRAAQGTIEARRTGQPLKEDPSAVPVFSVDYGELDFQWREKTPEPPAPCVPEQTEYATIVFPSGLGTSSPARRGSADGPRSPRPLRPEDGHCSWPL

[6] = target: T6, cynoPD-1 His (AcroBiosystems PD1-C5223) (cynomolgus monkey, UniProt B0LAJ3 25-170); assay: SPR; second ka column, taken as cynoPD-1
T6 construct: also called cPD-1; cynomolgus PD-1 His-tagged
T6 sequence (B0LAJ3 entry or part of it limits assumed): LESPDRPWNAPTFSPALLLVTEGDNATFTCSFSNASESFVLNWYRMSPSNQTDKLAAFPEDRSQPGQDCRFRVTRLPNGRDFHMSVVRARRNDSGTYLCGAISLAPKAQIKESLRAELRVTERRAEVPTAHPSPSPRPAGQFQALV
Procedure: Anti-human Fc IgG (Jackson) was immobilized on amine reactive CM5 chips (GE Healthcare) using 1×HBS-EP+ running buffer (GE Healthcare). The test antibodies were captured at flow rate 10 μl/min with 30 s contact time. […] Regeneration was carried out with 10 mM Glycine-HCl, pH 1.5 at flow rate 10 μL/min. This protocol is to be used, unless stated otherwise, in determination of Kd wherever used to define the KD of antibodies specified herein, with adaptions where necessary with regard to the nature of the interaction partners.
Every position in the antibody VH and VL-CDRs was mutated by PCR using a mutagenic primer containing a degenerate codon NNS at a specific CDR position, introducing a combination of all 20 amino acids. The library of single mutants was screened by scFv capture ELISA using a redundancy factor of 4 (on 96-well plate er position). Clones displaying ≥2× ELISA signal compared to the wild-type scFv were sequenced, and clones with unique sequences were re-grown, re-screened by capture ELISA and ranked by dose-dependent ELISA on human and cyno antigens, and by FACS using human antigen expressing cells. Affinity improving mutations were used to design a combinatorial library using the Kunkel method. The library was screened by scFv capture ELISA using the redundancy factor of 4 (4× number of combinations). Clones displaying ≥2× ELISA signal compared to the wild-type scFv were sequenced, and clones with unique sequences were re-grown, re-screened by capture ELISA and ranked by dose-dependent ELISA on human and cyno antigens, and by FACS using human antigen expressing cells.

T1 sequence (Q15116 25-167 limits assumed): as the sequence (Q15116 25-167 limits assumed) above

Row | EC50 [1] | Max OD [1] | EC50 [2] | Max OD [2] | EC50 [3] | Max MFI [3] | Kd [4] | koff [4] | kon [4] | Max MFI [5] | kon [6] | Binder
1 | 0.083 nM | 3.39 OD | 0.087 nM | 3.58 OD | 1.5 nM | 41000 MFI | 0.148 nM | 3.28e-05 s⁻¹ | 222000 M⁻¹ s⁻¹ | 70 MFI | 185000 M⁻¹ s⁻¹ | XVT458-z2-m1 (antibody, V domains shown, IgG format; also called z2-XVT458-m1; z2_XVT458m1) VH: QVQLVQSGAEVKKPGASVKVSCKASGYTFTNFYIHWVRQAPGQGLEWMGSIYPNYGFTAYNQKFKDRVTMTVDTSTSTAYMELRSLRSDDTAVYYCARGYSYAMDYWGQGTTVTVSS VL: DIQMTQSPSSVSASVGDRVTITCSASQGIWGDLNWYQQKPGKAPKLLIYHTSQLHSDVPSRFSGSGSGTDFTLTISSLQPEDFATYYCQGYSKDLLTFGGGTKLEIK
2 | 0.089 nM | 3.37 OD | 0.094 nM | 3.54 OD | 1.34 nM | 41100 MFI | 0.417 nM | 6.57e-05 s⁻¹ | 158000 M⁻¹ s⁻¹ | 124 MFI | 138000 M⁻¹ s⁻¹ | XVT458-z2-m3 (antibody, V domains shown, IgG format; also called z2_XVT458m3) VH: QVQLVQSGAEVKKPGASVKVSCKASGYTFTNFYIHWVRQAPGQGLEWMGRIYPNYGITAYNQKFKDRVTMTVDTSTSTAYMELRSLRSDDTAVYYCARGYSYAMDYWGQGTTVTVSS VL: DIQMTQSPSSVSASVGDRVTITCSASQGISGDLNWYQQKPGKAPKLLIYHTSQRHSDVPSRFSGSGSGTDFTLTISSLQPEDFATYYCQGYSKDLLTFGGGTKLEIK
3 | 0.076 nM | 3.34 OD | 0.086 nM | 3.56 OD | 1.15 nM | 42800 MFI | 1.24 nM | 0.00019 s⁻¹ | 153000 M⁻¹ s⁻¹ | 367 MFI | 127000 M⁻¹ s⁻¹ | XVT458-z2-m2 (antibody, V domains shown, IgG format; also called z2_XVT458m2) VH: QVQLVQSGAEVKKPGASVKVSCKASGYTFTNFYIHWVRQAPGQGLEWMGRIYPNYGFTAYNQKFKDRVTMTVDTSTSTAYMELRSLRSDDTAVYYCARGYSYAMDYWGQGTTVTVSS VL: DIQMTQSPSSVSASVGDRVTITCSASQGIYGDLNWYQQKPGKAPKLLIYHTSSLHSGVPSRFSGSGSGTDFTLTISSLQPEDFATYYCQAYSKDLLTFGGGTKLEIK
